The data set can be described thus: label from the status in PepcDB records.

Turning to “MIDDMAVPLTFTDAAANKVKSLISEEENTDLKLRVYITGGGCSGFQYGFTFDEKVNDGDLTIEKSGVQLVIDPMSLQYLIGGTVDYTEGLEGSRFTVNNPNATSTCGCGSSFSI”, the protein production result was “not failed”.

Regarding “MIDEPTGLYNRLRLQEDVSLRLQRDGALTVIAADLLPLALLNTIIRTLGYPFSNDLMLEARDRIRAELPDFTLYKISPTRFGLLLPRQQQEETESVCLRLLRAFESPVVCRGIPIKANVGLGVLPLADDTLDGDQDWLRLVVSAADDARDRGVGWARYNPPLDQAQQRLEHHHHHH”, the protein production result is listed as “not failed”.

In the case of “MIDGQIRLGHSMPWGMVGGGQGSQIGYIHRSAALRDGSFQLVAGAFDLDPERGRQFGQRLGVSAQRCYPDYRAMFEAEARRPDGIRAVSIATPNNTHFDICRAALHAGLHVVCEKPLCFTTAEAEALQRLAGEQRKIVGVTYGYAGHQLIEHAREMIVRGDLGEIRIVQMQFSHGFHSEGVEAANPAARWRMDPTFAGPSYVLGDIGTHPLYLSEVMLPGLKIARLLCSRQSFVKTRAPLEDNAFTIMEYQGGAIGYAWSCAVNAGSMHGQKIRVIGSKASLEWWDEHPNQLRYEVQGQPAQVLDRGMGYLHPAALHDDRIGAGHPEGLFEAWSNLYYRFALAMDATDRDDAAALRGIRYPDIHAGVEGVRWVENCVRSADAGGVWVDYR”, the protein production result is listed as “failed”.

Regarding “MIDVIQSLGIDLHFRQEIEQTLHMIYKEGLQFNGDLHEIALRFRLLRQEGHYVQEIIFKNILDKKGGFKDVVKNDVKGLTELFEASELRVEGEETLDGAREFTYSRLNELCSGRESHQKQEIMKSLAQPRHKTVRGLTSKRFTSMIKIAGQEDPEWLQSLLRVAEIDSIRLKSLTQGEMSQTFKWWTELGLEKDVEKARSQPLKWHTWSMKILQDPTLTEQRLDLTKPISLVYVIDDIFDVYGELEELTIFTRVVERWDHKGLKTLPKYMRVCFEALDMITTEISMKIYKSHGWNPTYALRQSWASLCKAFLVEAKWFNSGYLPTTEEYMKNGVVSSGVHLVMLHAYILLGEELTKEKVELIESNPGIVSSAATILRLWDDLGSAKDENQDGTDGSYVECYLNEYKGSTVDEARTHVAQKISRAWKRLNRECLNPCPFSRSFSKACLNIARTVPLMYSYDDDQRLPDEYLKSLM”, the protein production result is recorded as “failed”.

As to “MIEEYLLRALLASLMVSTLLGLLSPLINVKGVAFLTHATFHALLFGAVLGMILGLIMGDLSLIFWISLLIAIIVVIGIAEMEIRGYSSDTAVGTMAGIIAGLTVLGFGILYKVMASRPYFALSESIVSYLTGEIFLITFDDLTLLVIGGFLVFTIMVIFYRDFLYLSFDPEGLESHGGNVRLYLMLLYFLVGAVGGLIVKTVGLITLQVLAVLPGAIALTISRGIREFVGISLGLTLAIQVSSTFLGYYFNIPPSGLATIFLGTIYGVLALRRKII”, the protein production entry is reported as “failed”.

As for “MIEFDNLTYLHGKPQGTGLLKANPEDFVVVEDLGFEPDGEGEHILVRILKNGCNTRFVADALAKFLKIHAREVSFAGQKDKHAVTEQWLCARVPGKEMPDLSAFQLEGCQVLEYARHKRKLRLGALKGNAFTLVLREVSNRDDVEQRLIDICVKGVPNYFGAQRFGIGGSNLQGAQRWAQTNTPVRDRNKRSFWLSAARSALFNQIVAERLKKADVNQVVDGDALQLAGRGSWFVATTEELAELQRRVNDKELMITAALPGSGEWGTQREALAFEQAAVAAETELQALLVREKVEAARRAMLLYPQQLSWNWWDDVTVEIRFWLPAGSFATSVVRELINTTGDYAHIAE”, the protein production result is “not failed”.

For “MIEFITPRTFLFSTQTVVFSVLLFVFYIFYRTFSRKYVKYWLMSIGALNFSYLIKSFVPYSSRNFSSDSWQILAELLLQIFQYSFLIFLIFGVYIAKNNKELSKEILSGGIGAIIILSVISTMFFAFDPSQAFNHFYLTISLPSFIFGCTFLSLACYLLFDKKSYFSSQVLMYFSAIFGLRYLMHSFISIVALTEPWFRQLELFLLYFDVAAHSILGFTLLIWMQGAERFATLSAISRAQYLGKHDSLTGALNREQVMAKLSDKMQELTHANKINKNQMKLAVFLIDIKQFKFINDTYGLKVGDFILGEIASRLNHSVFIPQAVGRLSGDSFMFVIEFEQISHVDRAVNHIHELIERCFRYEQQEITIQGSVGYCFYPDDADKSEDLLQKSNLALHHAETNNIPSVAFEEGMQAQGRHLVLMEKQLRSAIANDEFVLYYQPQLNLFTNKLEGVEALVRWQHPEKGLLSPGDFLTELETLGMHNEFDNYILVKACQASERWFKLYQRRVAIAVNITAVEFQNEQLVTNIQMLLHKYGIPSKYIELEITENVVMTDITRAMDSIVKLQSMGIKVSIDDFGTGYSSLAYLRDLPIDKIKIDRSFINEVAINDSDLTIVKSMVDLSHGLGKRVLAEGVETIEQLNLLRHLGCDAVQGYFISKPLPESKLVRYLKKK”, the protein production result is listed as “failed”.

Turning to “MIEIRKASTHDATAIQTLLTQLGYPQSLEFIEKKIRLFESDERQFIFVADIDHKLAGFLSLTMIPQIALEGDFARIAYVCVDQQFRGKRIGQTLVAYAEQIAKSWGCNRMELHSGDHRKQAHEFYLGQNYEDAPKYFRKFL”, the protein production entry is given as “failed”.

Regarding “MIEKILLAVSGLGHAEEMLKTLKEVPSIQSAKVTVLHVVPSQATSSAMTDKWEEGGKILANAIQALNLDPSQVSSILRQGDPKDVVCQVADEIDADLIIMGSRGLKRLQSILSNSVSQYVFQLSSRPMLLVKDDIYVKRIKRVMVAMDNSDAAKHCLNLALFLLRGIVGSQLILANVTTDLRGKTSEVSEISPDKNPVLASAVAEAQRYGIQTRCFTSSGKPGEEICRLADELNVDLLLLGSPDRRPSVAKNFVDIDRLIGASLSDYVRVNASCPVLLARTTG”, the protein production entry is “failed”.

Regarding “MIEKVYEFKRDAKTKVVEKLVNTEHVQINHIVLPRGEQMPKHYSNSYVHLIIIKGEMTLTLEDQEPHNYKEGNIVYVPFNVKMLIQNINSDILEFFVVKAPHPKKLNAPEDPIKCE”, the protein production entry is recorded as “not failed”.

On to “MIELDYLTIAFGGAIGAVLRYLVSRTINSLLPFSYIPLGTIIVNSVGSFFLSFLMFAAIEKVPLSKEAILFFGTGLLGAFTTFSTFTYETLSLIEESPARGVAYALANLLFAFTCAYFGMILGRGKV”, for which the protein production result is “failed”.

Regarding “MIENEFGEVSVDDQLIGDRATQIKTLTNGCICCSRSNELEDALLDLLDNLDKGNIQFDRLVIECTGMADPGPIIQTFFSHEVLCQRYLLDGVIALVDAVHADEQMNQFTIAQSQVGYADRILLTKTDVAGEAEKLHERLARINARAPVYTVTHGDIDLGLLFNTNGFMLEENVVSTKPRFHFIADKQNDISSIVVELDYPVDISEVSRVMENLLLESADKLLRYKGMLWIDGEPNRLLFQGVQRLYSADWDRPWGDEKPHSTMVFIGIQLPEEEIRAAFAGLRK”, the protein production result is recorded as “not failed”.

For “MIEPSKITVEQWLNRWLTDYAKPHLRQSTWESYETVLRLHVIPTLGSIPLKKLQPADIQRLYASKLESGLSPTRVRYIHVVLHEAMSQARESGLLLQNPTEAAKPPRHPKKKVQPLEHHHHHH”, the protein production result is recorded as “not failed”.

As for “MIEQPYPSVADTDAAPPTAQGKIDQYFQISARGSTQRREVVAGITTFMAMVYAVFVVPGMLGKAGFDTSAVFVAVCLTTAFGSLLMGLWAKLPIAIGCAISLTAFMAFGLVLGQHLSPAVALGAVFLMGVVFTAISVTGVRTWILRNLPAGVAHGAGIGIGLFLLLIASNEVGLVIKNPGPGLPVSLGNITAFPVMMSILGLAAIFGLERRRVPGGILLVIVAISALGLVFDPSVKFTGIFALPTLSAPGHTSLIGAMDIRGALSAAVLPSVLALVMTAVFDATGTIRAVAGQANQLDATGRIHNGGRALTADSVSSIFSAFFGGAPAAAYIESTVGVAAGARTGLAAVTVGALFLAVMFFSPLAGLVPSYATAPALMYVGLLMLSSVSRLHMDDLVDALSGLVCAVFIVLTCNIVTGIMLGFCTLVIGRIVSGEWRKLNIGTVAIAVALAAFYAGGWAI”, the protein production result is recorded as “failed”.

“MIESIQELLQKEAQAVLNIPVTDAYEKAVELIVEQIHRKKGKLVTSGMGKAGQIAMNIATTFCSTGIPSVFLHPSEAQHGDLGILQENDLLLLISNSGKTREIVELTQLAHNLNPGLKFIVITGNPDSPLASESDVCLSTGHPAEVCTLGMTPTTSTTVMTVIGDILVVQTMKRTEFTIEEYSKRHHGGYLGEKSRKLCVK”: the protein production result was “not failed”.

On to “MIESVLLLVSGLPGSGKSTLARGMAEALAWPCLDKDDFLEALFDARGIGDAAWRRALSREADSRFLAALQAAPRAVACSWWRHPRGEGGSGTPIGGLARPGRLVLELHCRCPAELAAARFARRVRHPGHLDAQRDPGALSLQLRRAERLGPLGLGQCLILDASVQTDLSGALAWTRDALAAGALADPPRHPLEHHHHHH”, for which the protein production entry was “failed”.

(Values after a protein production outcome set (Wang et al. 2014).)
